Reference: patent US20220412989A1, “COMPOSITIONS AND METHODS FOR DETECTING CELLS UNDERGOING FERROPTOSIS USING AN ANTIBODY” (THE TRUSTEES OF COLUMBIA UNIVERSITY IN THE CITY OF NEW YORK, priority 2020, published 2022)

System: A-673, SK-BR-3, Huh-7 and SK-LMS-1 cells
Experiment: Immunofluorescence staining in other cancer cell lines
Type: cell-based, human
Conditions: 1 μM RSL3, 4 h
Description: HT-1080 (ATCC Cat #CRL-7951, RRID:CVCL_0317), A-673, SK-BR-3, SK-LMS-1 and Huh-7 cells were treated with 1 μM RSL3 for 4 h, 15 μM erastin for 8 h, 10 μM IKE for 8 h, 15 μM FINO2 for 8 h, 10 μM FIN56 for 8 h, 100 μM tBuOOH for 8 h, 1 μM staurosporine (STS) for 6 h, 2 μM camptothecin (CPT) for 24 h, 1 μM RSL3+5 μM Fer-1 for 4 h and 10 μM IKE+5 μM Fer-1 for 8 h on poly-lysine-coated cover slips (Sigma Aldrich P4832) in 24-well plate. Media were taken out and the cells were gently washed with PBS^++ (PBS with 1 mM CaCl2) and 0.5 mM MgCl2) twice. The cells were fixed and permeabilized by adding 200 μL/well of 4% paraformaldehyde (PFA) in PBS with 0.1% Triton X-100 (PBT), and incubated at room temperature for 18 min. The cells were then washed with PBT three times. Then the cells were blocked with 5% goat serum (ThermoFisher 50197Z) in PBT for 1 h at room temperature. […] When applicable, line-scan analysis was performed on representative confocal microscopy images using Zeiss LSM software to qualitatively visualize fluorescence overlap.
The quantification of the intensity of antibodies was analyzed using CellProfiler 3.1.8 (Carpenter et al., 2006) (CellProfiler Image Analysis Software, RRID:SCR_007358). […] Then mean intensities and size areas of nuclei, cytoplasm and plasma membranes were then measured and reported. […]

B1: 3F3-FMA: murine monoclonal IgG1 raised against ferroptotic membrane fractions; antigen is human transferrin receptor protein 1 (TfR1) (antibody, V domains shown)
VH: EVLLQQSGTELVRPGALVKLSCKASGFNIQDLYIHWVKQRPEQGLEWIGWIDPETDNTIYDPKFQGKASITADTSSNTAYLQLSSLTSEDTAMYYCSTGLLQWYFDVWGAGTAVTVSS
VL: DIVMTQSPSSLAMSIGQKVTMRCKSSQSLLNSYNQKNCLAWYQQKPGQSPKLLLYFVSTRESGVPDRFIGSGSGTDFTLTISSVQAEDLADYFCQQHYSTPLTFGAGTKLELK
staining upon ferroptosis induction: staining concentrated at the cell boundaries and became brighter
